The values below come from PMC5240591.

Experiment in all cases: fluorescence polarisation
The target in experiment [1] is T4 lysozyme mutant L99A, bimane-labelled at Cys151 (T151Bi) (bacteriophage T4) (UniProt P00720).
For experiment [2] the target is unchanged. This is another data set of the same source.
In experiment [3] the target is T4 lysozyme mutant D70N, bimane-labelled at Cys151 (T151Bi) (bacteriophage T4) (UniProt P00720).
For experiment [4], the target named is T4 lysozyme mutant L99A/A130S, bimane-labelled at Cys151 (T151Bi) (bacteriophage T4) (UniProt P00720).
Experiment [5] has as its target T4 lysozyme mutant L99A, bimane-labelled at Cys151 (T151Bi) (bacteriophage T4) (UniProt P00720). This is another data set of the same source.
The target of experiment [6] is T4 lysozyme mutant L99A/A130S, bimane-labelled at Cys151 (T151Bi) (bacteriophage T4) (UniProt P00720). This is another data set of the same source.
Experiment [7] has as its target T4 lysozyme mutant L99A, bimane-labelled at Cys151 (T151Bi) (bacteriophage T4) (UniProt P00720). This is another data set of the same source.
Experiment [8] deals with T4 lysozyme mutant L99A/A130S, bimane-labelled at Cys151 (T151Bi) (bacteriophage T4) (UniProt P00720). This is another data set of the same source.

pKd: −log10 of the molar value. Like-named read-outs stand apart in the source and are kept apart here.

Regarding “human αA-crystallin (from UniProt P02489 1-173) (natural protein)”, the pKd is 5.72 in experiment [1], 5.61 in experiment [2], 4.83 in experiment [3] and 5.63 in experiment [4].

“human αB-crystallin (from UniProt P02511 1-175) (natural protein)” had a pKd in experiment [1] of 4.55.

As to “rat αA^ins-crystallin (from UniProt P24623 1-196) (natural protein)”, the pKd in experiment [2] is 7.77; in experiment [3], 5.17; in experiment [4], 7.19. The stoichiometry N in experiment [2] was determined as 0.33; in experiment [4] it was 0.32.

For “triply phosphorylated analog (S15D/S78D/S82D) of human Hsp27 (from UniProt P04792 1-205) (natural protein)”, in experiment [1], the pKd is 7.42.

Turning to “triply phosphorylated analog (S19D/S45D/S59D) of human αB-crystallin (from UniProt P02511 1-175) (natural protein)”, the pKd in experiment [1] was 7.15.

Regarding “zebrafish αA-crystallin (from UniProt Q8UUZ6 1-173) (natural protein)”, the pKd in experiment [1] is 5.08; in experiment [5], 4.29; in experiment [6], 4.68; in experiment [2], 5.09; in experiment [3], 4.05; in experiment [4], 5.21. In experiment [4], this substance came in with a stoichiometry N of 1.25.

On to “zebrafish αBa-crystallin, population αBa-S (from UniProt Q9PUR2 1-168) (natural protein)”, for which the pKd in experiment [7] is 7.92; in experiment [1], 7.17; in experiment [5], 6.04; in experiment [6] it was 6.68; in experiment [2], 7.24; in experiment [3], 5.73. Besides, the pKd in experiment [4] is 7.20. Also, the stoichiometry N is 0.64 in experiment [7], 0.65 in experiment [1], 0.47 in experiment [2] and 0.65 in experiment [4].

In the case of “zebrafish αBb-crystallin (from UniProt Q6DG35 1-165) (natural protein)”, the pKd in experiment [6] was 5.31; in experiment [2], 5.87; in experiment [3] it was 5.31; in experiment [4] it was 6.92; in experiment [8], 4.54. In experiment [4], this substance returned a stoichiometry N of 0.33.
